Experimental data taken from PMC4226739 (The Journal of Cell Biology, 2014).

What was measured:
Assay in all cases: FRAP in micropatterns
[1] = target: tyk2 fused to monomeric EGFP (tyk2-EGFP) (UniProt P29597 1-1187)
[2] = target: STAT2 fused to tagRFP-T (STAT2-tagRFP) (UniProt P52630 1-851)
[3] = target: STAT2 fused to monomeric EGFP (STAT2-EGFP) (UniProt P52630 1-851)
Sequence of STAT2 fused to monomeric EGFP (STAT2-EGFP) (P52630 whole entry, the tested form may be a part): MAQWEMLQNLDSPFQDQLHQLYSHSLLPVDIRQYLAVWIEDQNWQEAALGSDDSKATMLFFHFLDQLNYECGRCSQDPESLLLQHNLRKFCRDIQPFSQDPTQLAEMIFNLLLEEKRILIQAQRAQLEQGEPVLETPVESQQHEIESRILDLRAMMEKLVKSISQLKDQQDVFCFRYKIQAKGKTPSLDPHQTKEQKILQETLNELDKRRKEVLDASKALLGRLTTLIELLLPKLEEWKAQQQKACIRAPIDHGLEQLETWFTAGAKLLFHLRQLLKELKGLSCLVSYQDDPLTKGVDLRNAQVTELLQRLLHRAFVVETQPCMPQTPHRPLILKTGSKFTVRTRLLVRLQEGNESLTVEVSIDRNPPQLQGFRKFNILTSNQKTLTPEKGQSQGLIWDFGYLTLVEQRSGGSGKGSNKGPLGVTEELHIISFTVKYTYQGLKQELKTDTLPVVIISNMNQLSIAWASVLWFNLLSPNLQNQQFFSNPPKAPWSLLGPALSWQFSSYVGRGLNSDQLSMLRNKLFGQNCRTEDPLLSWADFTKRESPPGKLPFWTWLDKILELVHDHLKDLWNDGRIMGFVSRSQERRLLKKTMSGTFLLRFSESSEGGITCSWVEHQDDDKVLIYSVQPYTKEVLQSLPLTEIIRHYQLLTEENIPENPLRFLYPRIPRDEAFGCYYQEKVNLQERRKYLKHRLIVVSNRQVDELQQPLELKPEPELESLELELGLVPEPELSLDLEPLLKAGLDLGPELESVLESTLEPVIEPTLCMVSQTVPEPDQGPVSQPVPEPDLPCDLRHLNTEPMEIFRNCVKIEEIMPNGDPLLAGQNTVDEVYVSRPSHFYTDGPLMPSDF

Sequence of STAT2 fused to tagRFP-T (STAT2-tagRFP) (P52630 whole entry, the tested form may be a part): as above
Sequence of tyk2 fused to monomeric EGFP (tyk2-EGFP) (P29597 whole entry, the tested form may be a part): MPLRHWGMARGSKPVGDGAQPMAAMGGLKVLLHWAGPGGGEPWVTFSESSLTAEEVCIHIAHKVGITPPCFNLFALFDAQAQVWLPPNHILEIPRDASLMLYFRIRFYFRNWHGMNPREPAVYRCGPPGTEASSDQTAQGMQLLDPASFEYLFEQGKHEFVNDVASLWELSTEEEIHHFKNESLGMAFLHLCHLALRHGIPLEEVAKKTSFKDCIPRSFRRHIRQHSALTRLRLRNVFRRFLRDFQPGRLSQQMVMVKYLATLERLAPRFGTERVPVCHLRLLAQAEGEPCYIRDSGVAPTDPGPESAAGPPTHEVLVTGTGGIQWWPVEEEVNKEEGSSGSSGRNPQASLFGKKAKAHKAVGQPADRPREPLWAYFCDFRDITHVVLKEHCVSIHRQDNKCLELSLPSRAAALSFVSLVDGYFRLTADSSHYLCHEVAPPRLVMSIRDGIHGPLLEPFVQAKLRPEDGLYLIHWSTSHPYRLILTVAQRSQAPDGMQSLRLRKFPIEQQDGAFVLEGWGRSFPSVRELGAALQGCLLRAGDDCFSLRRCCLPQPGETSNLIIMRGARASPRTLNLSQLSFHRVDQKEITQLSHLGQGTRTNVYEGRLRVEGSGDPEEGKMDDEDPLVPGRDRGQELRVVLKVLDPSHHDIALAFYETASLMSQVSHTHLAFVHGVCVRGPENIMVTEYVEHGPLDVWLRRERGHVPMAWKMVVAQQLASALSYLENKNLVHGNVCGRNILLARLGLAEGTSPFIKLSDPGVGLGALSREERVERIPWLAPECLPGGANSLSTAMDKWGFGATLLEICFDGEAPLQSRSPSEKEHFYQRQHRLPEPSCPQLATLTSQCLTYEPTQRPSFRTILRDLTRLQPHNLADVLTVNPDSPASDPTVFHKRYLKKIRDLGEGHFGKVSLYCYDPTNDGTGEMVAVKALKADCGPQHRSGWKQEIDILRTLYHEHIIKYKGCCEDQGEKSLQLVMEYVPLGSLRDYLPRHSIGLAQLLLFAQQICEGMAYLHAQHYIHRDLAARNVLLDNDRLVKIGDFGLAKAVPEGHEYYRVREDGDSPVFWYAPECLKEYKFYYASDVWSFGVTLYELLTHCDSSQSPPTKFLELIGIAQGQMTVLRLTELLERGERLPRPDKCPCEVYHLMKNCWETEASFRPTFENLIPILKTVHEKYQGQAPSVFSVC

| Binder | koff [1] [s⁻¹] | koff [2] [s⁻¹] | koff [3] [s⁻¹] |
| --- | --- | --- | --- |
| IFNAR1 fused to an N-terminal HaloTag (HaloTag-IFNAR1) (receptor) KNLKSPQKVEVDIIDDNFILRWNRSDESVGNVTFSFDYQKTGMDNWIKLSGCQNITSTKCNFSSLKLNVYEEIKLRIRAEKENTSSWYEVDSFTPFRKAQIGPPEVHLEAEDKAIVIHISPGTKDSVMWALDGLSFTYSLVIWKNSSGVEERIENIYSRHKIYKLSPETTYCLKVKAALLTSWKIGVYSPVHCIKTTVENELPPPENIEVSVQNQNYVLKWDYTYANMTFQVQWLHAFLKRNPGNHLYKWKQIPDCENVKTTQCVFPQNVFQKGIYLLRVQASDGNNTSFWSEEIKFDTEIQAFLLPPVFNIRSLSDSFHIYIGAPKQSGNTPVIQDYPLIYEIIFWENTSNAERKIIEKKTDVTVPNLKPLTVYCVKARAHTMDEKLNKSSVFSDAVCEKTKPGNTSKIWLIVGICIALFALPFVIYAAKVFLRCINYVFFPSLKPSSSIDEYFSEQPLKNLLLSTSEEQIEKCFIIENISTIATVEETNQTDEDHKKYSSQTSQDSGNYSNEDESESKTSEELQQDFV | ~0.0025 | – | – |
| HaloTag-IFNAR2 (receptor) ISYDSPDYTDESCTFKISLRNFRSILSWELKNHSIVPTHYTLLYTIMSKPEDLKVVKNCANTTRSFCDLTDEWRSTHEAYVTVLEGFSGNTTLFSCSHNFWLAIDMSFEPPEFEIVGFTNHINVMVKFPSIVEEELQFDLSLVIEEQSEGIVKKHKPEIKGNMSGNFTYIIDKLIPNTNYCVSVYLEHSDEQAVIKSPLKCTLLPPGQESESAESAKIGGIITVFLIALVLTSTIVTLKWIGYICLRNSLPKVLNFHNFLAWPFPNLPPLEAMDMVEVIYINRKKKVWDYNYDDESDSDTEAAPRTSGGGYTMHGLTVRPLGQASATSTESQLIDPESEEEPDLPEVDVELPTMPKDSPQQLELLSGPCERRKSPLQDPFPEEDYSSTEGSGGRITFNVDLNSVFLRVLDDEDSDDLEAPLMLSSHLEEMVDPEDPDNVQSNHLLASGEGTQPTFPSPSSEGLWSEDAPSDQSDTSESDVDLGDGYIMR | – | 0.015 ± 0.005 | 0.12 ± 0.05 |
